Experimental data from patent US20190300576A1.

Key:
SUMO-C-CA (HIV-1) [1] = experiment: HPSEC affinity selection, 50*7.8mm BIO-SEC-3 column, peptide quantified by LC-MS in the protein fraction
[2] = molecular target: Trypsin from bovine pancreas (bovine) (UniProt P00760); experiment: Trypsin inhibition assay
SUMO-C-CA (HIV-1) [3] = experiment: BLI, peptide on streptavidin sensors, global fit
SUMO-C-CA (HIV-1) [4] = experiment: BLI, C-terminally biotinylated peptide immobilized
SUMO-C-CA (HIV-1) [5] = experiment: BLI, biotinylated peptide immobilized on streptavidin sensors, SUMO-C-CA in solution

Sequence of Trypsin from bovine pancreas (bovine) (P00760 24-246): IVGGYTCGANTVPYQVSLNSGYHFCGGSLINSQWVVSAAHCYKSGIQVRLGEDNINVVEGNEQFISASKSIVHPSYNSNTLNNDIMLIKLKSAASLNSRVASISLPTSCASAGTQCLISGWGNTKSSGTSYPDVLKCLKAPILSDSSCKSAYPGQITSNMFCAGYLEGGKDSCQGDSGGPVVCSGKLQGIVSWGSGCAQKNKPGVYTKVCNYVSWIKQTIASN

| Substance | Selection yield (%) (SUMO-C-CA (HIV-1) [1]) | Kd [2] [nM] | Kd (SUMO-C-CA (HIV-1) [3]) [nM] | Kd (SUMO-C-CA (HIV-1) [4]) [nM] | Kd (SUMO-C-CA (HIV-1) [5]) [nM] |
| --- | --- | --- | --- | --- | --- |
| CAI (37) (peptide) | 0.5 | – | – | – | – |
| EETI-II-diol (59) (from UniProt P12071 1-28) (peptide) | – | 0.93 | – | – | – |
| peptide 37a (biotinylated CAI) | – | – | 2200 | 2300 | 2300 |
| peptide NYAD (37a-M) | – | – | 5000 | – | 5800 |
